Test results taken from patent US9868789B2, “Synergistic combinations of OX40L antibodies for the treatment of GvHD” (Kymab Limited, priority 2015, dated 2018).

T1: CHO-S expressed hOX40L (Homo sapiens, UniProt P23510)
T1 construct: expressed in transfected cells
T1 sequence (P23510 1-183): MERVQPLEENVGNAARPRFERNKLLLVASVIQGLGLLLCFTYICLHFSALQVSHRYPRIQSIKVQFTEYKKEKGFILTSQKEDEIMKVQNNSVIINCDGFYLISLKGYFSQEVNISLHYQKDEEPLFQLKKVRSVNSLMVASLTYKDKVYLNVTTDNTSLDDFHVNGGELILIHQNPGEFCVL


What was measured:
CHO-S expressed hOX40L = molecular target: T1, CHO-S expressed hOX40L; assay: FACS binding to CHO-S expressed hOX40L; settings: binding to hOX40L expressed on CHO-S cells; YES
Description: CHO-S cells expressing hOX40L or untransfected CHO-S cells, diluted in FACS buffer (PBS+1% w/v BSA+0.1% w/v NaN3) were distributed to a 96 well V-bottom plate (Greiner) at a density of 1×10^5 cells per well. Cells were washed with 150 μL of PBS and centrifuged at 300×g for 3 min. Supernatant was aspirated and 150 μL of PBS added. This wash step was repeated.
25 μL of hybridoma supernatant or purified antibody from hybridoma supernatant diluted in FACS buffer was added to the washed cells and incubated for 10-15 minutes. Reference Antibody or mouse IgG1 control antibody (Sigma) were diluted in FACS buffer to 20 μg/mL and 25 μL added to cells. 25 μL of human OX40R Fc (in-house) diluted to 1000 ng/mL in FACS buffer were then added to wells. Cells were incubated at 4° C. for 30 minutes.
Cells were washed twice with 150 μL of PBS centrifuging after each wash step and aspirating supernatant (centrifuged at 300×g for 3 minutes).
To detect antibody and receptor binding, 50 μL of Goat anti-human IgG-PE (Jackson ImmunoResearch) and APC anti-mouse IgG (Jackson ImmunoResearch) diluted 1 in 500 in FACS buffer was added to the cells. Cells were incubated 30 minutes at 4° C. in the dark.
To fix cells 100 μL 2% v/v paraformaldehyde was added and cells incubated for 30 minutes at 4° C., cells were pelleted by centrifugation 300×g and the plates and resuspended in 50 μL of FACS buffer. PE and APC signal intensity (geomean) was measured by flow cytometry using a BD FACS Array instrument.
% of control binding was calculated using geomean fluorescence as described in equation 1 where total binding was defined as reference antibody at 10 μg/mL and non-specific binding as mouse IgG1 antibody at 10 μg/mL. % receptor binding was calculated using Equation 3.
Binding of antibodies purified from hybridoma supernatant was carried out as described herein.

recombinant hOX40L = molecular target: T2, recombinant hOX40L (Homo sapiens, UniProt P23510); assay: Surface plasmon resonance, apparent affinity to human OX40L; assay type: binding; settings: SPR, 25° C., OX40L at 256 nM; CNROR = Cannot resolve off-rate
T2 construct: cDNA encoding the extracellular domain of human OX40L was cloned into a pREP4 expression plasmid; made in house; host or cells: FreeStyle CHO-S, transient expression
T2 sequence (P23510 with tags, fused parts or gaps): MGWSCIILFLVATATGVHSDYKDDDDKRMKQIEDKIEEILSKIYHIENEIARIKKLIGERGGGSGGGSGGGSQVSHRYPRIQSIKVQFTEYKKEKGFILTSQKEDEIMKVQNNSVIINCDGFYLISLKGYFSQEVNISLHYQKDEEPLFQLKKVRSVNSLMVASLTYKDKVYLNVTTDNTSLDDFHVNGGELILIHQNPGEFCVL
Description: (§1) SPR analysis was carried out using the ProteOn™ XPR36 Array System (BioRad). Anti-mouse IgG (GE Healthcare BR-1008-38) was immobilised on a GLM biosensor surface using amine coupling, the surface was then blocked using 1 M ethanolamine. Test antibodies were captured on this surface and recombinant hOX40L (human and rhesus) were used at a single concentration of 256 nM, binding sensorgrams were double referenced using a buffer injection (i.e. 0 nM) to remove baseline drift and injection artefacts. Apparent affinities for the OX40L-antibody interaction were determined using the 1:1 model inherent to the ProteOn XPR36 analysis software. The assay was run using HBS-EP (Teknova) as running buffer and carried out at 25° C.

Rhesus monkey OX40L = assay: Surface plasmon resonance, apparent affinity to rhesus OX40L; assay type: binding, Rhesus (Macaca mulatta); settings: SPR, 25° C., OX40L at 256 nM; CNROR = Cannot resolve off-rate
Sequence of Rhesus monkey OX40L (as listed by the source): as the sequence (P23510 with tags, fused parts or gaps) above, with R77Q, K95E counted along it
Description: as §1

allogeneic PBMC/PBMC MLR = assay: Allogeneic PBMC/PBMC Mixed Lymphocyte Reaction (IFN-γ release); assay type: cell-based, human; settings: compared to the isotype control; one valid experiment
Description: PBMCs are isolated from leukoreduction system chambers (NHSBT) using Ficoll-Paque plus (GE Healthcare) density gradient centrifugation. PBMC are pre-incubated with mitomycin C (Sigma) at 10 μg/mL in PBS for one hour at 37° C. Cells are then washed 3 times in PBS centrifuging at 300×g for 3 minutes, aspirating the supernatant after each wash. Allogeneic PBMC (not treated with mitomycin C) are added to a 96-well plate in RPMI supplemented with 10% v/v FBS at a concentration of 2×10^6/ml, 50 μL/well. Anti-OX40L antibodies are diluted in culture media and added to 96 well plate containing PBMC (not mitomycin C treated) at 50 μL/well. Mitomycin C treated PBMC are then added to allogeneic PBMC (not treated with mitomycin C) in 96-well plate at a final cell ratio in range of 1:1 to 4:1 mitomycin C treated to non mitomycin C based on number of cells/well. The cells are incubated for five days at 37° C./5% CO2. After five days TNF-α, IFN-γ, and IL-2 are measured by duoset ELISA (R&D Systems) according to manufacturer's recommendations. Proliferation is measured by CFSE dilution according to manufacturer's recommendations.
PBMCs were isolated from leukoreduction system chambers (NHSBT) using Ficoll-Paque plus (GE Healthcare) density gradient centrifugation. […] After five days, IFN-γ was measured by duoset ELISA (R&D Systems) according to manufacturer's recommendations. […]

[1] = test system: CD3 primed primary human T lymphocytes; assay: Effect of anti-OX40L antibodies on CD3 primed primary human T lymphocytes (IFN-γ release); assay type: cell-based; settings: 10 μg/mL, 5 days, four independent donors; versus human IgG4PE isotype control
Description: In order to determine whether anti-OX40L had the ability to induce T-cell responses in the absence of OX40L, the assay below was performed using method adapted from Wang et al., Hybridoma (Larchmt)., 2009 Aug.; 28(4):269-76, in which an agonist anti-OX40L antibody was described.
A mouse anti-human CD3 antibody (Becton Dickinson) was diluted to 0.5 μg/mL in sterile PBS and 50 μL/well added to a 96 well high binding sterile plate and incubated overnight at 4° C.
Following overnight incubation, the plate was washed three times with 100 μL of sterile PBS.
T-cells (CD3 positive) were isolated from PBMC derived from leukoreduction system chambers (NHSBT) as described in Example 3. Following isolation, the cells were added to wells in 100 μL to achieve a final concentration of 1×10^5 cells/well.
Test antibodies were diluted in RPMI+10% FBS and 50 μL or 100 μL/well added to cell plate to achieve a final assay concentration of 10 μg/mL. In some cases, a mouse anti-human CD28 antibody (Becton Dickinson) was also added to wells at a final concentration of 1 μg/ml
The assay was incubated for 5 days. After 5 days, harvest supernatants and IFN-γ levels in supernatant were determined as described in Example 5.

| FACS Binding (CHO-S expressed hOX40L) | Apparent Affinity hOX40L (nM) (recombinant hOX40L) | Apparent Affinity RhsOX40L (nM) (Rhesus monkey OX40L) | Molecule | IFN-γ release in PBMC/PBMC MLR (allogeneic PBMC/PBMC MLR) | IFN-γ release from CD3 primed T-cells in the absence of OX40L [1] |
| --- | --- | --- | --- | --- | --- |
| YES | CNROR | CNROR | 2D10 (hybridoma): murine/human chimeric anti-hOX40L antibody purified from hybridoma supernatant; VH SEQ ID No:34, VL SEQ ID No:48 (antibody, listed as Homo Sapiens, V domains shown) VH: EVQLVESGGGLVQPGGSLRLSCAASGFTFSNYAMNWVRQAPGKGLEWVSTISGSGGATRYADSVKGRFTISRDNSRNTVYLQMNSLRVEDTAVFYCTKDRLIMATVRGPYYYGMDVWGQGTTVTVSS VL: DIQMTQSPSSLSASVGDRVTITCRASQSISSYLNWYQQKPGKAPNLLIYAASSLQSGVPSRFSGSGSETDFTLTISSLQPEDFATYYCQQSHSVSFTFGPGTKVDIK | – | – |
| – | CNROR | CNROR | 10A07 (human): fully human anti-human OX40L antibody reformatted to IgG4-PE; VH SEQ ID No:2, VL SEQ ID No:16 (antibody, listed as Homo Sapiens, V domains shown, IgG4-PE constant region) VH: EVQLVESGGVLVQPGGSLRLSCAASGFTFSSYIMTWVRQAPGKGLEWVSGISGSGGGTYYADSMKGRFTISRDNSKNTLYLQMNSLRVEDTAVYYCAKDRLGPITLVRGGYYYGMDVWGQGTTVTVSS VL: DIQMTQSPSSLSASVGDRVTITCRASQSISDYLNWYQQKPGKAPKFLIYAASSLQSGVPSRFSGSGSGTDFTLTVSSLQPEDFATYYCQQSYSTPRTFGQGTRVEIK | inhibited IFN-γ release | no effect |
| YES | CNROR | CNROR | 10A07 (hybridoma): murine/human chimeric anti-hOX40L antibody purified from hybridoma supernatant; VH SEQ ID No:2, VL SEQ ID No:16 (antibody, listed as Homo Sapiens, V domains shown) VH: EVQLVESGGVLVQPGGSLRLSCAASGFTFSSYIMTWVRQAPGKGLEWVSGISGSGGGTYYADSMKGRFTISRDNSKNTLYLQMNSLRVEDTAVYYCAKDRLGPITLVRGGYYYGMDVWGQGTTVTVSS VL: DIQMTQSPSSLSASVGDRVTITCRASQSISDYLNWYQQKPGKAPKFLIYAASSLQSGVPSRFSGSGSGTDFTLTVSSLQPEDFATYYCQQSYSTPRTFGQGTRVEIK | – | – |
| YES | – | – | 9H04 (hybridoma): murine/human chimeric anti-hOX40L antibody from hybridoma; VH SEQ ID No:66, VL SEQ ID No:80 (antibody, listed as Homo Sapiens, V domains shown) VH: QVQLVESGGGLVKPGGSLRLSCAASRFTLSDYYMTWIRQAPGKGLEWVSYISSSGNTIYYADSVKGRFTISRDNAKNSLYLQMNSLRAEDTAVYYCARDLSGSYWDYYYGMDVWGQGTTVTVSS VL: AIQLTQSPSSLSTSVGDRVTIACRASQGINNALAWYQQKPGKAPKLLIYDASSLESGVPSRFSGSGSGTDFTLTISSLQPEDFATYYCQQFNSYPRTFGQGTKVEIK | – | – |
